Measurements: PMC12005531, “Structure of the scaffolding protein and portal within the bacteriophage P22 procapsid provides insights into the self-assembly process” (PLOS Biology, 2025)
Where “and” joins values, the source holds several entries; their conditions need not be identical. Identical values can stand only once.

Biological target: the molecule itself
Assay: cryo-EM structure; P22 procapsids (upper CsCl band) from infected S. typhimurium, in phage buffer (10 mM Tris-HCl, 1 mM MgCl2, pH 7.4); symmetry-mismatch reconstruction at about 9 Å and local reconstructions (portal 3.0 Å with C12, nodules 4.9 Å, SP trimer 6.9 Å, SP tetramer 6.9 Å, C-loop 6.7 Å); AlphaFold2 model of gp8 fitted into the maps

B1: bacteriophage P22 scaffolding protein gp8 (natural protein, UniProt P26748 1-303, looked up)
chain: MEPTTEIQATEDLTLSGDHAAASADSLVVDNANDNAGQEEGFEIVLKDDETAPKQDPAKNAEFARRRIERKRQRELEQQMEAVKRGELPESLRVNPDLPPQPDINAYLSEEGLAKYDYDNSRALAAFNAANTEWLMKAQDARSNAVAEQGRKTQEFTQQSAQYVEAARKHYDAAEKLNIPDYQEKEDAFMQLVPPAVGADIMRLFPEKSAALMYHLGANPEKARQLLAMDGQSALIELTRLSERLTLKPRGKQISSAPPADQPITGDVSAANKDAIRKQMDAAASKGDVETYRKLKAKLKGIR
notes: scaffolding protein gp8 of bacteriophage P22, 303 amino acid residues, 33.6 kDa; domains: N-loop 1-57, base 58-84 and 163-245, column 85-162, C-loop 246-267, hook 268-303; the N-loop was not resolved; Native protein within the procapsid; About 250-300 copies per procapsid, from cited work; also called SP; P22 SP; source: phage P22 propagated in S. typhimurium; inside procapsids purified by CsCl …
- stoichiometry N: 2 and 3 and 4
